Assay: yeast display, Sf9 membrane polyspecificity reagent, FACS + sequencing; frameworks hold sequencing errors
Procedure, shortened: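 Galactose-induced (36–48 hours) yeast carrying a synthetic nanobody display library were exposed to 10% biotinylated, detergent-solubilized Sf9 membrane reagent at 4 °C for 1 hour. FACS followed streptavidin microbead enrichment, using low and high (top ~1%) gates for expression (anti-HA) and reagent binding (streptavidin). Colony PCR, MiSeq 2 × 250 sequencing and CDR-length filtering followed. Labels for polyreactivity reflect the gate of origin.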

QVQLVESGGGLVQAGGSLRLSCAASGFILAGYAMGWSRQAPGKERELVAAINSRGTRTYYADSVKGRFTISRDNAKNTVYLQMNSLKPEDTAVYYCAVHVWGTYGSWEYYYWGQGTQVTVSS
polyreactivity (PSR sort gate): high polyreactivity

QVQLVESGGGLVQAGGSLRLSCAASGSIFTFYAMGWYRQAPGKERELVATINRIGGNTYYADSVKGRFTISRDNAKNTVYFQMNSLKPEDTAVYYCAADRSAWGSNWETQFDYWGQGTQVTVSS
polyreactivity (PSR sort gate): low polyreactivity

QVQLVESGGGLVQAGGSLRLSCAASGFIFRSYAMGWYRQAPGKERELVAAISRSGGSTYYADSVKGRFTISRDNAKNTVYLQMNSLKPEDTAVYYCNTARRDREVDYWGQGTQVTVSS
polyreactivity (PSR sort gate): high polyreactivity

QVQLVESGGGLVQAGGSLRLSCAASGLTFRLNAMGWYRQAPGKERELVAAITRGGRTNYADSVKGRFTISRDNAKNTVYLQMNSLKPEDTAVYYCAARYVERHTDYYYWGQGTQVTVSS
polyreactivity (PSR sort gate): low polyreactivity

QVQLVESGGGLVQAGGSLRLSCAASGRIFQSNAMGLYRQAPGKERELVAAISYSGGGSTYYADSVNGRFTISRDNAKNTVYLQMNSLKPEDTAVYYCAARRVGGCFYTWRNPAYEYWGQGTQVTVSS
polyreactivity (PSR sort gate): high polyreactivity

QDQLVESGGGLVQAGGSLRLSCAASGFIFADYAMGWYRQATGKERELVAAISWGGGSTYYADSVKGRFTISRDIAKNTVYLQMNSLKPEDTAVYYCAAANPGSEYDYWGQGTQVTVSS
polyreactivity (PSR sort gate): high polyreactivity

QVQLVESGGGLVQAGGSLRLSCAASGSIFLKNAMGWYRQAPGKERELVAAITPGGSTYYADSVKGRFTISRDNAKNTVYFQMNSLKPEDSAVYHCAARPGGGKYRGYYYWGQGTQVTVSS
polyreactivity (PSR sort gate): high polyreactivity

QVQLVESGGGLVQAGGSLRLSCAPSGRTFGYYGMGWYRQEPGKERELVASINFSSGSTFYADSVKGRFSISRDNAKNTVYLQMNSLKPEDTAVYYCAARAKAVRSYAYNYWGQGTQVTVSS
polyreactivity (PSR sort gate): low polyreactivity

QVQLVESGGGLVQAGGSLRLSCAASGRISIIYAMGWYRQAPGKERELVARISGSGGSTNYADSVKGRFTISRDNAKNTVYLQMKSLKPEDTAVYYCAAVPWRIHKYYYWGQCTQVTVSS
polyreactivity (PSR sort gate): high polyreactivity

QVQLVESGGGLVQAGGSLRLSCAASGFIFGFYAMGWYRQAPGKERELVAAITSDGGTYYADSVKGRFTISRDNAKNTVYLQMNSLKPEDTAVYYCAARPPYTDSSPGERTYDYWGQGTQVTVSS
polyreactivity (PSR sort gate): low polyreactivity

QVQLVESGGGLVQAGGSLRLSCAASGRTFDHNAMGWYRQAPGKERELVAAITWSGGITDYADSVKRPFTISRDNAKNTVYLQMNSLKPEDTAVWGQGTQVTVSS
polyreactivity (PSR sort gate): low polyreactivity

QVQLEESGAGLVQAGGSLRLSCAASGRIFTVYAMGWYRHAPGKEREFVAAIRSSGGRTYYADSVKGRFTISRDNEKNTVYLQMNSLNPEDTAVYYCAASVTGPSGADYYYWGQGTQVTVSS
polyreactivity (PSR sort gate): high polyreactivity

QVQLVESAGGLVQEGGILRLICADSGRIVYRYAMGWYRQAPGKERELVAAISRRGGSTYYEDSVKGRFTISRDNAKYTVIFQMNSLKAVDTAVYYFARYHWYYRVSKSDSWGQGTQVPVSS
polyreactivity (PSR sort gate): high polyreactivity

QVQLVESGGGLVQAGGSLRLSCAASGSIFHYNAMGWSRQAPGKERELVAAISRGGSTHYADSVKGRFTISRDNAKNTVYLQMNSLKPEDTAVYYCATVQVVGPWSYRKLDYCGQGTQVTVSS
polyreactivity (PSR sort gate): high polyreactivity

QVQLVESGGGLVLAGGSLRLSCAASGSTFFSYMGWYREAPGKERELVAANTSGAITYYADSVKGRFTISRDNAKNTVYLQMNSLKPEDTAVYYCNTDRYYVTLRNLEMDYWGQGTQVTVSS
polyreactivity (PSR sort gate): low polyreactivity

QVQLVESGGGLVQAGGSLRLSCAASGFIFPFNAMGWYRQAPGKERELVAAITSGGSTYYADSVKGRFTISRDNAKNTVYLQMNSLKPEDTAVYYCAKSWDRIGIWYRLEYWGQGTQVTVSS
polyreactivity (PSR sort gate): low polyreactivity

QVQLVESGGGLVQAGGSLRLSSSASGRISGRNAMGWYRQAPGKERELVAVITRGDTNYADSVKGRFTISRDNAKNTVYLQMNSLKPEDTAVYYCAKEPLASGWGYDYWGQGTQVTVSS
polyreactivity (PSR sort gate): high polyreactivity

QVQIVDSGGGLVQAGGSLRLSCAASGSTFRAYAMGWYRQSPGKEWELVAAISSSGGSTYYADSVKGRFTISRDNAKITVYLQMNSLKPEDTAVYYFAAAFLAAGRNVRYYWGQGTQVTVSS
polyreactivity (PSR sort gate): high polyreactivity

QVQHVESGGGLVQAGGSLRLSCAASGRIFYAYAMGWYRQAPGKQREMVAAITARGGSTYYADSVKGRFTISRDNAKNTVYLQINSLKPEDTAVYYCAKDTLLETGYEYWGQGTQVTVSS
polyreactivity (PSR sort gate): high polyreactivity

QVQLVESGGGIVQAGGSLRLSSAASGRIFYRYAMGWYRQAPGKERELVASITRSGITHYADSVNGRFTISRDNAKNTVYLQMNSLKPEDTAVYYCNKRPWHRSSRPFYYWGQGTQVTVSS
polyreactivity (PSR sort gate): high polyreactivity

QVQLVESGGGLVQAGGRLRLSCAASGITFRTNTMGWYRPAPGKERELVASISSGTRTNYADSVKGRFTISRDNAKNTVYLQLNSLKPVDTAVYYCAAGPPRTRYRNARFDYWGQGTQVTVSS
polyreactivity (PSR sort gate): high polyreactivity

QVQLVESGGGLVQAGGSLRLSCAASGSIFDSYANGWSRQAPGKERELVAAISSRGGRTYYADSVKGRFTISRDNAKNTVYLQMNSLKPEDTAVYYCAAGLYRYYWYGFDYWGQGTQVTVSS
polyreactivity (PSR sort gate): high polyreactivity

QVQLVESGGGLVQAGGSRRLSCAASGFMFGVNAMGWYRQAPGKERELVAVISVRGGSTYYADSLKGRFTISRDNAKNTVYLQMNSLKPEDTAVYYCAADTFAGYYYWGQGTQVTVSS
polyreactivity (PSR sort gate): high polyreactivity

QVQLVESGGGLFQARGSLRLSCAASGRTFWYYTMGWYRPAPGKERELVASITYRGGSTYYADSVKGRFTISRDNAKITVYLQMNSLKREDTALYYCYARYKRYSYDYWGQGTQVTVSS
polyreactivity (PSR sort gate): high polyreactivity

QVQLVESGGGLVQAGGSLRLSCAASGSTFVAYAMGWYRHAPGKERELVADISTSDGSTRYADSVKGRFTISSDNAKNTVYLQMISLKPEDTAVYYCGAGSEYYSYGGVRFSFYYWGQGTQVTVSS
polyreactivity (PSR sort gate): low polyreactivity

QVQLVESGGGLVQAGGSLRLSCAASVSTFSGYAMGWYRQAPGKERELVAAISSSGGGTYYADSVKGRFTISRDNAKNTVYLQMNSLKPEDTAVFYCAAYKYFLGFVWYDYWGQGTQVTVSS
polyreactivity (PSR sort gate): high polyreactivity

QVQLVESGGGLVQAGGSLRLSCAASGSTFPYYAMGWSRQAPGKERELVAAISGSGGTTYYADSVKGRFTISRDNAKNTVYLQMNSLKPEYTAVYYCAVDIGVGYGYYYWGQGTQVTVSS
polyreactivity (PSR sort gate): low polyreactivity

QVQLVESGGGLVQAGGSLRLSCAASGRIFQVNAMGWYRQAPGKERELVAAITYSGGTTYYADSVKGRFTISRDNAKNTVYLQMNSLKPEDTAVYYCAAEGYGAQGDPWQYGYEYWGQGTQVTVSS
polyreactivity (PSR sort gate): low polyreactivity

QVQLVESGGGLVQAGGILRLSCAASGSTFDPNVMGWYRQAPGKERELVAAITWSGGSTSYADSVKGRFTISRDNAKNTVYLQMNSLKPEDTAVYYCAADWHSWRWGYYYWGQGTQVTVSS
polyreactivity (PSR sort gate): low polyreactivity

QVQLVESWGCLVQAGGSLRLSCAASRSTFLSYAMGWDRQAPGKERELVAAISWSGGRTYYADSVKGRFTISRDHAKNTVYLQMNSLKPDDSAVYYCNAGQGYRAPLYNLYDYWGQGTQVTVSS
polyreactivity (PSR sort gate): low polyreactivity

QVQLVESGGGLVQAGGSLRLTCAASGFIFVTYAMGWYRQPPGKERELVAAITNSGGTTYYADSVKGRFTISRDNAKNTVYLQMNSLKPEDTAVYYCNIPYGAETAHREFDYWGQGTQVTVSS
polyreactivity (PSR sort gate): low polyreactivity

QVQLVESGGGLVQAGGSLRLSCAASGSTFGVYAMGWYRQAPGKEREFVAAISSSDGSTYYADSVKGRFTISRDNAKNTVYLQMNSLKPEDTAVYYCAKRGGYIYYAVTFTAEHGYWGQGTQVTVSS
polyreactivity (PSR sort gate): low polyreactivity

QVQLVESGGGLVQAGGSLRLSCAASGRIFRVNTMGWSRQAPGKERELVAAIRSSGTRPYYADSVKGRFTISRDHAKNTVYLQMNSLIPEDTAVYYCAAEHYWWYVFPSLWGEDDYWGQGTQVTVSS
polyreactivity (PSR sort gate): high polyreactivity

QVQLVESGGGLVQAGGSLRLSCAASGITFDNNAMGWYRQAPGKEREFVADIDGSGGSTYYADSVKGRFTISRDNAKNTVYLLMNCLKPEDTAVYYCAVVVYYYTYHYWGQGTQVTVSS
polyreactivity (PSR sort gate): low polyreactivity

QVQLVESGGRLVQAGGSLRLSCAASGSTFDYNAMGWYRQEPGKESEFVAAITSTGGNTYYADSVKGRFTISRDNAKNTVYLQMNSLKPEDTAVDYCNKDVARYPYGKFDYWGQGTQVTVSS
polyreactivity (PSR sort gate): low polyreactivity

QVQLVESGGGLVQAGGSLRLSCAASGSTFARNTMGWSRQAPGKEREIVAAIDWSGGNTYYADSVKGRFTISRDNAKNTVYLQMNSLKPEDTAVYNCYDYWGQGTQVTVSS
polyreactivity (PSR sort gate): low polyreactivity

QVQLHESGVGLVQAGGSLRLSCASSGTISYAGPMGWYRQAPGKEREFVAGIGVGSNTNYADSVKGRYTIIRDNAKNTVYLQMNSLKPEDTAVYYCAVGGYAPLGRPYWGQGTQVTVSS
polyreactivity (PSR sort gate): low polyreactivity

QVQLVESGGGLVQAVGSLRLSCAASGFTFGRYAMGWYIQAPAKEREFVASISARGGNTFYADSVKGRFTISRDNAKNTVYLQMNSLKPEDTAVYYCNAYYLAEYDYWGQGTQVTVSS
polyreactivity (PSR sort gate): high polyreactivity

QVQLVESGGGLVQAGGSLRLICAASGFTYSWYAMGWYRQAPGKERELVAAISWDGDSTYYADSVKGRFTISRDIAKNSVYLQMISLKPEDTAVYYCAADFSYYWVGYDYWGQGTQVTVSS
polyreactivity (PSR sort gate): high polyreactivity

QVQLVESGGGLVQAGVSLRLSCAASGRIFAVNAMGWYRQAPGKERELVASIRWSGGSTYYADSVKGRFTISRDYAKNTVYLQMNSLKPEETAVYYCAAVIYLWGQGTQVTVSS
polyreactivity (PSR sort gate): high polyreactivity

QVQLVESGGGLVQAGGSLRLSCAASASIFYRYAMGWYRQAPGKERELVAAITRSGARTYYADSVKGRFTISRDNAKNTVYLQMNSLKPEDNAVYYCAADDPGYYQVEYWGQGTQVTVSS
polyreactivity (PSR sort gate): high polyreactivity

QVQLLESGGGLVQAGGSLRLSCAASGSIFTGNAMGWYRQAPGKERELVAAISSSGGSTYYADSVKGRFTISRDNAKNNVYLQMNSLKPEDTAVYYCAAYNYFLQYDYWGQGSQVTVSS
polyreactivity (PSR sort gate): low polyreactivity

QVQFEESGGGLVQAGGSLRLSCAASGSTFQGYAMGWSRQAPGKERELVAAISSGGSTNYADSVKGRFTISRDNAKNTVYLQMNSLKPEDTAVYYCNVDLTTVGHWYYYRPGYDYWGQGTQVTVSS
polyreactivity (PSR sort gate): low polyreactivity
